Molecular target: T1, H-NS (Salmonella enterica serovar Typhimurium ATCC 14028s) (UniProt A0A0F6B244)
T1 sequence: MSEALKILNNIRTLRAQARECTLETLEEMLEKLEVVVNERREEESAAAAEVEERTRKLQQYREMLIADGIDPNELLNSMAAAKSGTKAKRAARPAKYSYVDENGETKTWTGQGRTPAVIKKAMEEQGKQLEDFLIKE
Experiment: EMSA
Conditions: 20 mM Tris-HCl, 1 mM EDTA, 100 ug/mL BSA, 1 mM DTT, 10% glycerol, 80 mM NaCl, 25 C, 30 min; 50 ng DNA in 20 uL, protein 0-9.76 uM; pH 7.5 or 5.5 in Fig. 5B …

Sequence	binding
GCCGTGCTGTTCACTCATCCGCGCCACCAGCCGGTCAAGGTGCAGACGGGCAATCACGCCACGCGACGTTTCGTCCAGCGGCAGGTAAGGGATCACCGTCACGCGGCCCAGAAATGCCGCCGGGAAATGCTTGCGCAATTCCGGCATTAGCGCCTCTTTAAGCCCCGTAGCATCGGGCATTAAGGCCGGATCTTCACACATCTGGCTGATGAGGTCGGAACCCACGTTGGTGGTGAGTAATAGCGTGGTG (double strand) [STM0272 fragment]	no binding
CAAAGACGCCGAGAATGTGAAAAAATTCGTTCAGGCTTATCAGTCTGATGAAGTGTACGAAGCCGCAAATAAAGTTTTTAATGGCGGCGCGGTGAAAGGCTGGTAAGTTTTAGGCTGATTCCACAATCTGTAATATTATTCAGGACGGGCTATTGCCCGTCTTGTCATTTATGCAAGCTCCTGATTCAATATCTGGC (double strand) [yaeB promoter (PyaeB)]	binds
